Results taken from FireProtDB (doi:10.1006/jmbi.2000.4053).
“And” between values parts separate entries of the source, which are not always exact repeats. Identical values can stand only once.

Conditions: Homo sapiens, pH 5, 25 °C
[1] = GdnHCl, CD, Sodium acetate 50 mM, structure 1TTG
[2] = GdnHCl, Fluorescence, Sodium acetate 50mM, transition: 2, structure 1FNF
[3] = GdnHCl, Fluorescence, Sodium acetate 50mM, transition: 2, structure 1TEN
[4] = Urea, CD, Sodium acetate 50 mM, structure 1TEN

Chain of Fibronectin Y1569A, P02751 (P02751 whole entry Y1569A): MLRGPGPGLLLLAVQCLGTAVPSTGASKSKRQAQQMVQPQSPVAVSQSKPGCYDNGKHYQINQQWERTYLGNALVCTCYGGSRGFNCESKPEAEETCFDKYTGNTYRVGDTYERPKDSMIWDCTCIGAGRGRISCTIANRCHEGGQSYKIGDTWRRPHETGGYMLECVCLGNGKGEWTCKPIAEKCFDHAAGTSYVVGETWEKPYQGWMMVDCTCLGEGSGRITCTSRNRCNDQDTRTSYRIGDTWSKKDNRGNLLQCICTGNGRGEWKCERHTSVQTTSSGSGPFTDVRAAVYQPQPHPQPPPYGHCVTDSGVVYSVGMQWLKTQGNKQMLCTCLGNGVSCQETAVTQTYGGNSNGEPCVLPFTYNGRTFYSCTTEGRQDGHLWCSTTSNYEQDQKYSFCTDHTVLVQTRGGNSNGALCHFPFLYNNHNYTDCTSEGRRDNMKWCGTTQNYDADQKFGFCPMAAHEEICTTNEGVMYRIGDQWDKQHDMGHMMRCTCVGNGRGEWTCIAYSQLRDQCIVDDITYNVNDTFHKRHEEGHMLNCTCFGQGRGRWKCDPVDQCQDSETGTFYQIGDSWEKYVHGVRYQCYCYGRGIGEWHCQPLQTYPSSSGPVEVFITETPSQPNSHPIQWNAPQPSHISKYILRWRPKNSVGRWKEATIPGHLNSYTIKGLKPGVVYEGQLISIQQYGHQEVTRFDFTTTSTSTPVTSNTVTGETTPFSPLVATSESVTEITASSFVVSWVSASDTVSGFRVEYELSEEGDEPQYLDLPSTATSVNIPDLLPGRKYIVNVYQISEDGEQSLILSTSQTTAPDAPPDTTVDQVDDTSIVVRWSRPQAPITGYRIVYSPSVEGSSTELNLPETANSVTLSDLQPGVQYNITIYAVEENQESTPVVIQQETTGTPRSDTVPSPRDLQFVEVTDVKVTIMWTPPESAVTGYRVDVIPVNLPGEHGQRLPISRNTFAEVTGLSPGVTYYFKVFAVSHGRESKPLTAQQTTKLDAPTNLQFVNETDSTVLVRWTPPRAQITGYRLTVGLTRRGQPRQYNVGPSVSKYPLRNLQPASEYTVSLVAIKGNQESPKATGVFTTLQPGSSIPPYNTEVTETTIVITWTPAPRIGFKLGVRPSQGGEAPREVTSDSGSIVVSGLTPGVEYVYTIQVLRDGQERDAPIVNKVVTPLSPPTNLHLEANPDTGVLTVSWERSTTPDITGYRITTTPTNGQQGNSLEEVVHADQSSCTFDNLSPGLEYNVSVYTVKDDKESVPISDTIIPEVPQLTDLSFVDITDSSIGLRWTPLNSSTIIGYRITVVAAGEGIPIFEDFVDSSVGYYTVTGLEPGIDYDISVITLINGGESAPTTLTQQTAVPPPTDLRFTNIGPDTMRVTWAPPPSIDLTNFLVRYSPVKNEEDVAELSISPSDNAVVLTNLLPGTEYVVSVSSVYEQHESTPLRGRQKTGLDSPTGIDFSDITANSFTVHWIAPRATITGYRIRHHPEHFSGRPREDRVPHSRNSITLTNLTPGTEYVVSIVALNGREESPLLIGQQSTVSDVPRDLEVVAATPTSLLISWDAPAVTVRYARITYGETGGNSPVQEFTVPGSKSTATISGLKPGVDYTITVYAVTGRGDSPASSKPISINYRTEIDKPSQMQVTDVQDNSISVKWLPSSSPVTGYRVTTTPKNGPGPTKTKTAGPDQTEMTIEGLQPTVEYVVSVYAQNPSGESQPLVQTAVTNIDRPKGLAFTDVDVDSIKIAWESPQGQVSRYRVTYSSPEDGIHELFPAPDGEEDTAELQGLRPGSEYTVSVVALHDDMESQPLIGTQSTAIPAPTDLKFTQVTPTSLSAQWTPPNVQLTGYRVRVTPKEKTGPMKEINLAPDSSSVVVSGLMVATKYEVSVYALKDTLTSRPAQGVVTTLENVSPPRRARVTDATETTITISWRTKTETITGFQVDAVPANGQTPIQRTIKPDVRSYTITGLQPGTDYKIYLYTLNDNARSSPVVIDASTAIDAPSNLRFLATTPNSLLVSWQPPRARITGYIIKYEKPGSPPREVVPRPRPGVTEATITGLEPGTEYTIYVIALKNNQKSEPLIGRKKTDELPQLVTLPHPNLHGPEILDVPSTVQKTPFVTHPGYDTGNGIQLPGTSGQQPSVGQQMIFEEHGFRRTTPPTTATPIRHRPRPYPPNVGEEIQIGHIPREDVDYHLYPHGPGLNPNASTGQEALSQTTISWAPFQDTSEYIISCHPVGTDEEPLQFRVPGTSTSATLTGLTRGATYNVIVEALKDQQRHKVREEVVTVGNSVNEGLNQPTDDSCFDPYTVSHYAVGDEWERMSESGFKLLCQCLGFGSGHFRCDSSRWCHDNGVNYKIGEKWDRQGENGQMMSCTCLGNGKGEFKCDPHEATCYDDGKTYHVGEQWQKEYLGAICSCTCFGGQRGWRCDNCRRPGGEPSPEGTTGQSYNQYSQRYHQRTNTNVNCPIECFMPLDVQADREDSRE
Chain of Fibronectin V1566A, P02751 (P02751 whole entry V1566A): as the sequence (P02751 whole entry Y1569A) above, with V1566A, A1569Y counted along it

Substance: Fibronectin A1550G, P02751
- ddG of mutation (higher = less stable) [1]: 0.93 kcal/mol
- denaturant m value [1]: 6.1 kcal/mol/M
- denaturant midpoint (higher = more stable) [1]: 1.33 M

Substance: Fibronectin A1594G, P02751
- ddG of mutation (higher = less stable) [1]: 2.81 kcal/mol
- denaturant m value [1]: 7.1 kcal/mol/M
- denaturant midpoint (higher = more stable) [1]: 1.04 M

Substance: Fibronectin A1611G, P02751
- ddG of mutation (higher = less stable) [1]: 1.38 kcal/mol
- denaturant m value [1]: 6.2 kcal/mol/M
- denaturant midpoint (higher = more stable) [1]: 1.26 M

Substance: Fibronectin F1585A, P02751
- ddG of mutation (higher = less stable) [1]: 2.16 kcal/mol
- denaturant m value [1]: 6.8 kcal/mol/M
- denaturant midpoint (higher = more stable) [1]: 1.14 M

Substance: Fibronectin I1571A, P02751
- ddG of mutation (higher = less stable) [1]: 5.02 kcal/mol
- denaturant m value [1]: 6.9 kcal/mol/M
- denaturant midpoint (higher = more stable) [1]: 0.7 M

Substance: Fibronectin I1571V, P02751
- ddG of mutation (higher = less stable) [1]: 0.41 kcal/mol
- denaturant m value [1]: 6.9 kcal/mol/M
- denaturant midpoint (higher = more stable) [1]: 1.41 M

Substance: Fibronectin I1596A, P02751
- ddG of mutation (higher = less stable) [1]: 3.66 kcal/mol
- denaturant m value [1]: 7.2 kcal/mol/M
- denaturant midpoint (higher = more stable) [1]: 0.91 M

Substance: Fibronectin I1596V, P02751
- ddG of mutation (higher = less stable) [1]: 1.12 kcal/mol
- denaturant m value [1]: 7.1 kcal/mol/M
- denaturant midpoint (higher = more stable) [1]: 1.3 M

Substance: Fibronectin I1607A, P02751
- ddG of mutation (higher = less stable) [1]: 3.72 kcal/mol
- denaturant m value [1]: 5.6 kcal/mol/M
- denaturant midpoint (higher = more stable) [1]: 0.9 M

Substance: Fibronectin I1625A, P02751
- ddG of mutation (higher = less stable) [1]: 0.35 kcal/mol
- denaturant m value [1]: 6.03 kcal/mol/M
- denaturant midpoint (higher = more stable) [1]: 1.42 M

Substance: Fibronectin I1625V, P02751
- ddG of mutation (higher = less stable) [1]: 0.35 kcal/mol
- denaturant m value [1]: 6.5 kcal/mol/M
- denaturant midpoint (higher = more stable) [1]: 1.42 M

Substance: Fibronectin I1627A, P02751
- ddG of mutation (higher = less stable) [1]: 0.35 kcal/mol
- denaturant m value [1]: 6 kcal/mol/M
- denaturant midpoint (higher = more stable) [1]: 1.42 M
- ddG of mutation (higher = less stable) [2]: 3.66 kcal/mol
- denaturant m value [2]: 7.2 kcal/mol/M
- denaturant midpoint (higher = more stable) [2]: 1.04 M
- unfolding free energy [2]: 5.74 kcal/mol

Substance: Fibronectin I1627V, P02751
- ddG of mutation (higher = less stable) [1]: 0.28 kcal/mol
- denaturant m value [1]: 6.3 kcal/mol/M
- denaturant midpoint (higher = more stable) [1]: 1.43 M
- ddG of mutation (higher = less stable) [2]: 1.12 kcal/mol
- denaturant m value [2]: 7.1 kcal/mol/M
- denaturant midpoint (higher = more stable) [2]: 0.91 M
- unfolding free energy [2]: 8.28 kcal/mol

Substance: Fibronectin L1545A, P02751
- ddG of mutation (higher = less stable) [1]: 1.64 kcal/mol
- denaturant m value [1]: 6.2 kcal/mol/M
- denaturant midpoint (higher = more stable) [1]: 1.22 M

Substance: Fibronectin L1555A, P02751
- ddG of mutation (higher = less stable) [1]: 0.87 kcal/mol
- denaturant m value [1]: 6.3 kcal/mol/M
- denaturant midpoint (higher = more stable) [1]: 1.34 M

Substance: Fibronectin L1599A, P02751
- ddG of mutation (higher = less stable) [1]: 2.94 kcal/mol
- denaturant m value [1]: 6.6 kcal/mol/M
- denaturant midpoint (higher = more stable) [1]: 1.02 M

Substance: Fibronectin P1542A, P02751
- ddG of mutation (higher = less stable) [1]: -0.11 kcal/mol
- denaturant m value [1]: 6.4 kcal/mol/M
- denaturant midpoint (higher = more stable) [1]: 1.49 M

Substance: Fibronectin P1562A, P02751
- ddG of mutation (higher = less stable) [1]: 0.48 kcal/mol
- denaturant m value [1]: 6.5 kcal/mol/M
- denaturant midpoint (higher = more stable) [1]: 1.4 M

Substance: Fibronectin P1601A, P02751
- ddG of mutation (higher = less stable) [1]: 0.41 kcal/mol
- denaturant m value [1]: 6.6 kcal/mol/M
- denaturant midpoint (higher = more stable) [1]: 1.41 M

Substance: Fibronectin S1622A, P02751
- ddG of mutation (higher = less stable) [1]: -0.11 kcal/mol
- denaturant m value [1]: 6.5 kcal/mol/M
- denaturant midpoint (higher = more stable) [1]: 1.49 M

Substance: Fibronectin V1547A, P02751
- ddG of mutation (higher = less stable) [1]: 1.38 kcal/mol
- denaturant m value [1]: 6.8 kcal/mol/M
- denaturant midpoint (higher = more stable) [1]: 1.26 M

Substance: Fibronectin V1566A, P02751
- ddG of mutation (higher = less stable) [1]: 1.45 kcal/mol
- denaturant m value [1]: 6.6 kcal/mol/M
- denaturant midpoint (higher = more stable) [1]: 1.25 M

Substance: Fibronectin V1587A, P02751
- ddG of mutation (higher = less stable) [1]: 2.42 kcal/mol
- denaturant m value [1]: 5.7 kcal/mol/M
- denaturant midpoint (higher = more stable) [1]: 1.1 M

Substance: Fibronectin V1603A, P02751
- ddG of mutation (higher = less stable) [1]: 0.67 kcal/mol
- denaturant m value [1]: 6.12 kcal/mol/M
- denaturant midpoint (higher = more stable) [1]: 1.37 M

Substance: Fibronectin Y1569A, P02751
- ddG of mutation (higher = less stable) [1]: 4.37 kcal/mol and 3.96 kcal/mol
- denaturant m value [1]: 6.8 kcal/mol/M
- denaturant midpoint (higher = more stable) [1]: 0.8 M

Substance: Fibronectin Y1569F, P02751
- ddG of mutation (higher = less stable) [1]: 0.41 kcal/mol
- denaturant m value [1]: 6.3 kcal/mol/M
- denaturant midpoint (higher = more stable) [1]: 1.41 M

Substance: Fibronectin Y1569L, P02751
- ddG of mutation (higher = less stable) [1]: 2.81 kcal/mol and 2.4 kcal/mol
- denaturant m value [1]: 6.6 kcal/mol/M
- denaturant midpoint (higher = more stable) [1]: 1.04 M

Substance: Fibronectin Y1573A, P02751
- ddG of mutation (higher = less stable) [1]: 2.29 kcal/mol
- denaturant m value [1]: 7.9 kcal/mol/M
- denaturant midpoint (higher = more stable) [1]: 1.12 M

Substance: Fibronectin Y1605F, P02751
- ddG of mutation (higher = less stable) [1]: 2.03 kcal/mol
- denaturant m value [1]: 6.2 kcal/mol/M
- denaturant midpoint (higher = more stable) [1]: 1.16 M

Substance: Fibronectin Y1629A, P02751
- ddG of mutation (higher = less stable) [1]: 1.19 kcal/mol
- denaturant m value [1]: 6.6 kcal/mol/M
- denaturant midpoint (higher = more stable) [1]: 1.29 M

Substance: Fibronectin Y1629F, P02751
- ddG of mutation (higher = less stable) [1]: -0.11 kcal/mol
- denaturant m value [1]: 6.5 kcal/mol/M
- denaturant midpoint (higher = more stable) [1]: 1.49 M

Substance: Tenascin, P24821 A819G
- ddG of mutation (higher = less stable) [3]: 2.8 kcal/mol
- denaturant m value [3]: 2.31 kcal/mol/M
- denaturant midpoint (higher = more stable) [3]: 1.3 M
- ddG of mutation (higher = less stable) [4]: 2.8 kcal/mol
- denaturant m value [4]: 1.3 kcal/mol/M
- denaturant midpoint (higher = more stable) [4]: 3.03 M

Substance: Tenascin, P24821 E887A
- ddG of mutation (higher = less stable) [3]: -1.61 kcal/mol
- denaturant m value [3]: 5.04 kcal/mol/M
- denaturant midpoint (higher = more stable) [3]: 1.3 M
- ddG of mutation (higher = less stable) [4]: -1.61 kcal/mol
- denaturant m value [4]: 1.2 kcal/mol/M
- denaturant midpoint (higher = more stable) [4]: 6.64 M

Substance: Tenascin, P24821 E887G
- ddG of mutation (higher = less stable) [3]: 0.34 kcal/mol
- ddG of mutation (higher = less stable) [4]: 0.34 kcal/mol
- denaturant m value [4]: 1.3 kcal/mol/M
- denaturant midpoint (higher = more stable) [4]: 5.04 M

Substance: Tenascin, P24821 F889A
- ddG of mutation (higher = less stable) [3]: 5.43 kcal/mol
- ddG of mutation (higher = less stable) [4]: 5.43 kcal/mol
- denaturant midpoint (higher = more stable) [4]: 0.9 M

Substance: Tenascin, P24821 I809A
- ddG of mutation (higher = less stable) [3]: 2.86 kcal/mol
- denaturant m value [3]: 5.17 kcal/mol/M
- denaturant midpoint (higher = more stable) [3]: 1.3 M
- ddG of mutation (higher = less stable) [4]: 2.86 kcal/mol
- denaturant m value [4]: 1.3 kcal/mol/M
- denaturant midpoint (higher = more stable) [4]: 2.98 M

Substance: Tenascin, P24821 I809V
- ddG of mutation (higher = less stable) [3]: 0.18 kcal/mol
- denaturant m value [3]: 4.21 kcal/mol/M
- denaturant midpoint (higher = more stable) [3]: 1.2 M
- ddG of mutation (higher = less stable) [4]: 0.18 kcal/mol
- denaturant m value [4]: 1.3 kcal/mol/M
- denaturant midpoint (higher = more stable) [4]: 5.17 M

Substance: Tenascin, P24821 I821A
- ddG of mutation (higher = less stable) [3]: 3.67 kcal/mol
- denaturant m value [3]: 5.13 kcal/mol/M
- denaturant midpoint (higher = more stable) [3]: 1.2 M
- ddG of mutation (higher = less stable) [4]: 3.67 kcal/mol
- denaturant m value [4]: 1.3 kcal/mol/M
- denaturant midpoint (higher = more stable) [4]: 2.31 M

Substance: Tenascin, P24821 I821V
- ddG of mutation (higher = less stable) [3]: 0.23 kcal/mol
- denaturant m value [3]: 3.9 kcal/mol/M
- denaturant midpoint (higher = more stable) [3]: 1 M
- ddG of mutation (higher = less stable) [4]: 0.23 kcal/mol
- denaturant m value [4]: 1.2 kcal/mol/M
- denaturant midpoint (higher = more stable) [4]: 5.13 M

Substance: Tenascin, P24821 I830A
- ddG of mutation (higher = less stable) [3]: 1.38 kcal/mol
- denaturant m value [3]: 5.06 kcal/mol/M
- denaturant midpoint (higher = more stable) [3]: 1.2 M
- ddG of mutation (higher = less stable) [4]: 1.38 kcal/mol
- denaturant m value [4]: 1.1 kcal/mol/M
- denaturant midpoint (higher = more stable) [4]: 4.19 M

Substance: Tenascin, P24821 I830V
- ddG of mutation (higher = less stable) [3]: 0.32 kcal/mol
- denaturant m value [3]: 2.63 kcal/mol/M
- denaturant midpoint (higher = more stable) [3]: 1.2 M
- ddG of mutation (higher = less stable) [4]: 0.32 kcal/mol
- denaturant m value [4]: 1.2 kcal/mol/M
- denaturant midpoint (higher = more stable) [4]: 5.06 M

Substance: Tenascin, P24821 I833A
- ddG of mutation (higher = less stable) [3]: 3.28 kcal/mol
- denaturant m value [3]: 4.91 kcal/mol/M
- denaturant midpoint (higher = more stable) [3]: 1.1 M
- ddG of mutation (higher = less stable) [4]: 3.28 kcal/mol
- denaturant m value [4]: 1.2 kcal/mol/M
- denaturant midpoint (higher = more stable) [4]: 2.63 M

Substance: Tenascin, P24821 I833V
- ddG of mutation (higher = less stable) [3]: 0.5 kcal/mol
- denaturant m value [3]: 1.8 kcal/mol/M
- denaturant midpoint (higher = more stable) [3]: 1.4 M
- ddG of mutation (higher = less stable) [4]: 0.5 kcal/mol
- denaturant m value [4]: 1.1 kcal/mol/M
- denaturant midpoint (higher = more stable) [4]: 4.91 M
